Experimental data from article PMC6019379, “RecA-like domain 2 of DNA-dependent ATPase A domain, a SWI2/SNF2 protein, mediates conformational integrity and ATP hydrolysis” (Bioscience Reports, 2018).

What was measured:
Assay in all cases: intrinsic tryptophan fluorescence titration; no ATP; Fluorescence titration (ex 295 nm, em 340 nm), one-site saturation fit; buffer, salt, pH and temperature not given in the material. Wild-type ADAAD Kd values are cited from ref 24 and not listed
Details in all cases: protein: recombinant; tags: His (Ni-NTA, pET-14b); hairpin
ADAAD F507W = molecular target: T1, ADAAD F507W (Bos taurus (bovine), UniProt Q9TTA5 221-940, F727W)
T1 sequence: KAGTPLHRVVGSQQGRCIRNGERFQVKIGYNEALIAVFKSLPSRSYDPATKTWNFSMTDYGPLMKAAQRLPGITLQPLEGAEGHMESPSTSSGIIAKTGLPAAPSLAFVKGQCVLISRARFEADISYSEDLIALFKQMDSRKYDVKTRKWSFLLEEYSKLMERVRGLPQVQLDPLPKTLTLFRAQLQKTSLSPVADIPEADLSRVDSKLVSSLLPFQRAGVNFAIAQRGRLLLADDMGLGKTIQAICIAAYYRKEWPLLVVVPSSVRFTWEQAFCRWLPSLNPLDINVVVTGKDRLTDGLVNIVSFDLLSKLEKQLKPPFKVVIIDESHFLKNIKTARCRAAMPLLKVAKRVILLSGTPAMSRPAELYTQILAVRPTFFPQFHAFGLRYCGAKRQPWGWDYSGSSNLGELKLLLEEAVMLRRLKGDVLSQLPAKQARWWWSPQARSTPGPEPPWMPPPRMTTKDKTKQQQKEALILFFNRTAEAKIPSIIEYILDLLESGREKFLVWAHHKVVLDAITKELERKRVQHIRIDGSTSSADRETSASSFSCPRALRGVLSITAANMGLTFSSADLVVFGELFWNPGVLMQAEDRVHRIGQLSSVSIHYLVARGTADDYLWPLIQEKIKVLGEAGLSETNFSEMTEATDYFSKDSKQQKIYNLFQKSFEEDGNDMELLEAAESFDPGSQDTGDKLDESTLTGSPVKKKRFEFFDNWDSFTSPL

ADAAD H329D/D591H = molecular target: T2, ADAAD H329D/D591H (Bos taurus (bovine), UniProt Q9TTA5 221-940, H549D;D811H)
T2 sequence: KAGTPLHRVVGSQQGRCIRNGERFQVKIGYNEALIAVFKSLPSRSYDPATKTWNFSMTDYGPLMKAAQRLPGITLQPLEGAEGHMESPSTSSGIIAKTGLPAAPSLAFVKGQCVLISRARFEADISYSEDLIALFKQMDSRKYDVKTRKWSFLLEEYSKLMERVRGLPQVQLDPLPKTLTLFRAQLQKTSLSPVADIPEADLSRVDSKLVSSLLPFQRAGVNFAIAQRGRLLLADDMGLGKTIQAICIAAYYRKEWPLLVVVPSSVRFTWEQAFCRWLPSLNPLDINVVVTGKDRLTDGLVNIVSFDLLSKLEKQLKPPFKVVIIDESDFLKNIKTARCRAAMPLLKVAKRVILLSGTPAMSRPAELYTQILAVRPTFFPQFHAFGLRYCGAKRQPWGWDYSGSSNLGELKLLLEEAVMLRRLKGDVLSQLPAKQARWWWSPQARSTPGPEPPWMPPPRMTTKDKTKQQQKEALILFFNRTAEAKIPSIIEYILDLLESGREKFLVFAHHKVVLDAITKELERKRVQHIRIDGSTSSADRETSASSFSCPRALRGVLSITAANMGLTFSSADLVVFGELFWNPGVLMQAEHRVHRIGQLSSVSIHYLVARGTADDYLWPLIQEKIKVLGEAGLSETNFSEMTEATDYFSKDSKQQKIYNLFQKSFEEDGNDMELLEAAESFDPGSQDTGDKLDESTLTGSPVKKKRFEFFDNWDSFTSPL

ADAAD T560A = molecular target: T3, ADAAD T560A (Bos taurus (bovine), UniProt Q9TTA5 221-940, T780A)
T3 sequence: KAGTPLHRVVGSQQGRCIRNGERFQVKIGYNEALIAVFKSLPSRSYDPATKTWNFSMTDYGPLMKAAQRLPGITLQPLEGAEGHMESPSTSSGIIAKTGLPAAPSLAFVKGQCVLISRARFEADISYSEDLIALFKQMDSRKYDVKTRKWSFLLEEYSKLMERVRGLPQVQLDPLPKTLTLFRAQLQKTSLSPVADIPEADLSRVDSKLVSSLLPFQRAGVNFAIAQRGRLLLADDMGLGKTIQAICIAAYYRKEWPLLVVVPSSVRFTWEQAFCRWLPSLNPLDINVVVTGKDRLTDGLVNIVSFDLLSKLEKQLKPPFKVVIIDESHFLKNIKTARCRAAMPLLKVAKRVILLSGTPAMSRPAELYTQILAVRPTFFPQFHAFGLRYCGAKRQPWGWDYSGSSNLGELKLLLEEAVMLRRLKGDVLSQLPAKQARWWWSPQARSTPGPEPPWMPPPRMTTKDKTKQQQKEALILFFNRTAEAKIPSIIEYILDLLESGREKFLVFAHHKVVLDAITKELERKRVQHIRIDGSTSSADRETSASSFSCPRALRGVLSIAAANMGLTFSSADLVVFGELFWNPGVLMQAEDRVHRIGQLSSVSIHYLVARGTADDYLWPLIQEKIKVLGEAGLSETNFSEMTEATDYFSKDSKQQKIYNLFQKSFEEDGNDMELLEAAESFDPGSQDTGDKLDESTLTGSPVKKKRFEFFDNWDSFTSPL

B1: slDNA (stem-loop DNA) (structured_DNA)
DNA: GCGCAATTGCGCTCGACGATTTTTTAGCGCAATTGCGC
**Q.** B1 was tested. Which Kd (ADAAD F507W) did it give?
**A.** Its Kd is 44.8 ± 9 nM.

**Q.** What about the Kd (ADAAD H329D/D591H) of the same binder?
**A.** The Kd was 16.1 ± 5.7 nM.

**Q.** What about the Kd (ADAAD T560A) of the same binder?
**A.** Its Kd is 6.8 ± 0.6 nM.
